± gives the uncertainty stated by the source.
Test: amyloid nucleation score (Sup35N fusion, yeast selection) (log enrichment); library NNK3; higher = more nucleation; inactive = no reads after selection
Summary of the method: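 Sup35N fusions to peptides of 20 random codons were expressed in psi-negative yeast, induced 24 hours with 100 μM copper sulfate, and grown 7 days at 30°C on medium lacking adenine and uracil. Input and output plasmid inserts were sequenced by Illumina. The nucleation score is the DiMSum log enrichment of output over input reads, centred on the mode score of non-aggregating sequences. Sequences with under 100 input reads were excluded.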

| Substance | amyloid nucleation score |
| --- | --- |
| QHAQGYLRGSTMYFEMM | 0.357 ± 0.25 |
| QHKQVNGFTITYTLGHCYTY | inactive |
| QHSGRWCGAPALGNLVAMSS | inactive |
| QHSSLKWYLYDYRFLLYTVL | -0.562 ± 0.5 |
| QHTGGVLRRTMFINRVSRRM | inactive |
| QHYLVYY | inactive |
| QICHRGEGFWPINSSIRKVV | inactive |
| QINSSLDMMRHTFCSEGYAV | inactive |
| QINWTGHLSMSFICFLNSRV | inactive |
| QIRAIMYVFGISVSAVLGAK | -0.19 ± 0.49 |
| QKNFLGNF | inactive |
| QLDHGH | inactive |
| QLHNYARMKAQLLAVQV | inactive |
| QLIELGRVVTCV | inactive |
| QLLQVWVNMFKTTAISWIVF | inactive |
| QLRICTR | -0.358 ± 1.1 |
| QMRVQMSCCFLGTCFSGRHW | 3.29 ± 0.056 |
| QNCFHVY | inactive |
| QNFPSTSHFNIYC | 1.72 ± 0.094 |
| QNFRFYLTCVSGSGHYRSYT | 1.37 ± 0.093 |
| QNFRIYTVSLLNNRYDELIS | inactive |
| QNGDKHYG | inactive |
| QNILLNVIVTRFGSLQWRSE | 1.83 ± 0.056 |

| Substance | amyloid nucleation score |
| --- | --- |
| QNMCAARPS | inactive |
| QPDFLSWVDACVNKVVYWVK | -0.421 ± 0.98 |
| QQLRNWFHLDPTLARKPKFL | inactive |
| QQPTYKYDDDKNFDSYWLAN | inactive |
| QRELSNMVVISLVQAMLWFR | inactive |
| QRFFRCIRSRSWTFTSGVIV | inactive |
| QRIEYA | inactive |
| QRRAL | inactive |
| QRVLY | 0.864 ± 0.15 |
| QSFLDTSPHLDHVVNNSIKH | inactive |
| QSLGVTRFWGLSLLLQNFLP | inactive |
| QSNEASCSGCLISKVLKNDN | inactive |
| QTEFSIGPYIPTEATSRTCS | -0.451 ± 1 |
| QTRVHLFAREPPCFTEFNER | inactive |
| QVCFQSWDASRSRYRHRLKR | 0.625 ± 0.21 |
| QVDHNWF | inactive |
| QVDISNLDCQSCRDKRVGLG | inactive |
| QVILHHMADKKAFISTSSSS | 1.52 ± 0.074 |
| QWKPWDNTAVGMLPAWIWVD | inactive |
| QWMQRTW | inactive |
| QWRIRSWHMYDSSLARGLD | inactive |
| QWWITTYFGLIFLYVFYSID | inactive |
| QYEWLNYSNLVVYSIKYPEN | inactive |

| Substance | amyloid nucleation score |
| --- | --- |
| QYFFNRKL | inactive |
| QYGIKGRRVKCWLCWHGDVE | inactive |
| QYLSRCLTWSYVTVKSLRSN | inactive |
| QYSMVVVV | inactive |
| QYSYSPGCRYLKVMLSNNSE | inactive |
| QYWNFFRFVRGDD | 0.601 ± 0.14 |
| RACCLFQGDWQERLDSISFA | inactive |
| RAGYVWTAVLRPHSNVAWFV | inactive |
| RAITSVSYVWTGRCL | 0.803 ± 0.14 |
| RALVFIIQVVFRFPCTAGIL | inactive |
| RAPRVVIGCSMYMGMFSELE | 0.772 ± 0.14 |
| RASLEYVGKCWWDGPYIEGV | inactive |
| RASTISLGKLVQLYLYSRRL | 0.468 ± 0.3 |
| RATKEGKRLDML | -0.725 ± 1.9 |
| RAVHR | inactive |
| RAWNWWGFVTFPERLMCSHT | inactive |
| RCDCEFYTLKWQCEVYYRGR | inactive |
| RCLPMG | inactive |
| RCNHSCFGSIMGCVVLCPGE | 1.33 ± 0.13 |
| RCTVNRRQSRSAHGMGPSSS | inactive |
| RCVIMTPLAIREHDNDASCQ | inactive |
| RCVQCEAYFCLFDKPDVDDT | 3.05 ± 0.053 |
| RCYVRFSRSRVVHIMLVYMP | inactive |

| Substance | amyloid nucleation score |
| --- | --- |
| RDHMSS | inactive |
| RDIVVNRLVRACSLGFLCLG | -0.792 ± 1.4 |
| RDNWSVNLDTKHDLSIAGKL | inactive |
| RDPDGRIYMYGLDVIQYVTN | inactive |
| RDRLKVLLLIFHSRDDTRTK | inactive |
| RDRLVWDRCRTVAPSTGVVR | inactive |
| RDSRRETKTNIWIVRYTLW | inactive |
| RDVIRRVVRMHLQLYMFMVG | -0.135 ± 0.98 |
| RDVVCRRMRTRVLSSHAPPR | inactive |
| REASVECH | inactive |
| REGSDHRFMICETFYFE | inactive |
| REKLDQP | inactive |
| REKTWFCSFIVTLGVCGWDG | inactive |
| RELRF | inactive |
| RERIYAELFSSWRRSAKGIF | inactive |
| REYSEA | inactive |
| RFCRSSWMYPVEGQVGHIRE | inactive |
| RFGALVTLVFVCYHWNRPTA | 0.753 ± 0.16 |
| RFGYKLFRSSVYGRGESYDY | inactive |
| RFISEYCMFENKEMVEPSFG | inactive |
| RFIVANHLGGVYLQE | inactive |
| RFLLHLML | -0.4 ± 0.45 |
| RFQFIEFSSTVSSGGWTFFI | -0.165 ± 0.39 |

| Substance | amyloid nucleation score |
| --- | --- |
| RFSFVTRFRYREQLPLVR | 0.068 ± 0.82 |
| RFTCKYLPTLLTGVIRGPSP | inactive |
| RFTYGDRCMKMRMPNFETAH | inactive |
| RFVAHG | inactive |
| RFWLDYEGRNAYWMGITHVW | inactive |
| RFWLLRRVVWEME | inactive |
| RFWSMRALR | inactive |
| RGAFSPVVWSDRMELLGRWL | inactive |
| RGFFMVWLMNCLMRFRISDF | inactive |
| RGFLVRWAPFCLGFGSTLND | inactive |
| RGIPDLVIY | inactive |
| RGKFHRVA | inactive |
| RGLQELLWI | -0.999 ± 1.9 |
| RGNATGSIKD | inactive |
| RGQCVPDAGQVRNGTCMRV | inactive |
| RGQFYLLVARLNSKM | inactive |
| RGSCEFSSLECDTWSNRPSD | inactive |
| RGSDIMAFAVDYTDNKSECS | inactive |
| RGVNKRKADVTRGCYSVVLN | inactive |
| RGVYNEHFCCGFSMWEPING | 2.3 ± 0.067 |
| RGWDVWAVHSEFYCLKKLIV | inactive |
| RHAPNVLKYLAHFNDYRQWH | inactive |
| RHNISFT | inactive |

| Substance | amyloid nucleation score |
| --- | --- |
| RHNVRCYCLGLMPNAPVDKL | inactive |
| RHRLAHMRNKWRGQVHCPKG | inactive |
| RHSFMRFRLSNWV | inactive |
| RHYLLCYIKRHTRLQIYKFS | inactive |
| RIFRCVEIA | inactive |
| RIITLNRHIRRVFRMGCRSM | inactive |
| RILFDAARRIRWTVMCTKSC | inactive |
| RIMLVYCMGSRGIAMFCQHN | inactive |
| RINESRLYLSEVKYGLTCVR | inactive |
| RIQCIRLDHFSLSLFYFFTA | 0.636 ± 0.21 |
| RIRMSCYLIVYIGIACGYIS | inactive |
| RIVGRLVSRALWWV | inactive |
| RKAGR | inactive |
| RKDYGMLYFFLSSRKCTHAI | inactive |
| RKGNGMHKNSYSTARMYCGF | inactive |
| RKILVVFLSWFNFKVYSNSM | inactive |
| RKKESYSN | inactive |
| RKLWLMCYS | inactive |
| RKNLWLVTTGNSARDMLSKM | inactive |
| RKYTKCSFRKKSWCPSPFEL | inactive |
| RLANKFSMTSGT | inactive |
| RLFFGYCRMDVIFAPYISCV | inactive |
| RLHLAPTNCREVNWPTLWLA | -0.565 ± 1.8 |

| Substance | amyloid nucleation score |
| --- | --- |
| RLHLRKYFFETAHWICMNDG | inactive |
| RLKRYLHSMTHRRMRERYCY | inactive |
| RLLLMSRSLMIRFVLSLVLE | inactive |
| RLLRVGFMLRFLIMIRRVRF | -0.365 ± 1 |
| RLLVGFIWSWLGISYFTRFL | inactive |
| RLMNFVPSFVFCCFYKK | 1.27 ± 0.14 |
| RLNTMCYSSALASS | inactive |
| RLNYWMTDDGCGRSCDTRVE | inactive |
| RLRQTATCIRFVFAGNVLAN | 0.018 ± 1.2 |
| RLSGSEKVELM | inactive |
| RLSYQYFCQAMRMEGEFWSY | -0.16 ± 0.33 |
| RLTYIVCSA | inactive |
| RLVWGCCLLDTCVVEQGSGV | 2.78 ± 0.076 |
| RLYLNSFSHQNSCPRDLDGL | 0.969 ± 0.1 |
| RMCKTATVIHYGLFINLTEF | inactive |
| RMEKIRTKVNSVTDSSWKSR | inactive |
| RMFVSIRLLGTCCSDWSYYE | 1.78 ± 0.085 |
| RMGHVFMYDYHIV | inactive |
| RMGIASIYAIVLQPMIRLWL | inactive |
| RMLMIMVACVGTYDSSN | inactive |
| RMPYKMQFFCNLWLSVYSTL | inactive |
